We go through one molecule from paper PMC10617019 (Nature cell biology, 2023).

Where no end group is shown, it is not given here. [ ]: non-standard residue; d: D form. Hyp = O=C(O)[C@@H]1C[C@@H](O)CN1

This assay addresses pVHL in complex with elongin C and elongin B (VCB) (human, UniProt P40337 55-213; Q15370 1-118). Briefly: fluorescence polarisation. For orientation: Fluorescence polarisation rises when a labelled molecule tumbles more slowly, as on binding a larger partner.

B1: Fluorescein isothiocyanate-labelled RIPK1 peptide T189LYYMA(Hyp)EHLNDVNA203 (peptide)
peptide: TLYYMA[Hyp]EHLNDVNA
modifications: also: FITC label, position not given here
For B1, the Kd is 5.9 µM.

The Kd is the equilibrium constant for the complex coming apart. A low value points to higher affinity.
